Reference: patent US20200316217A1 (CHILDREN S MEDICAL CENTER, published 2020)
Ends that are not written are not given here.

Legend:
[1] = biological target: T1, PTHR1YFPΔECD (human); test: flow cytometry, AlexaFluor647-VHH on stably transfected HEK293 cells
T1 construct: PTHR1 in which YFP replaces the entire extracellular domain; Stably expressed on HEK293 cells (GD5); also called Human PTHR1-delNT-YFP; hPTHR1YFPΔECD
Experimental: (§1) FIGS. 14A-14B: Binding of VHHs to HEK293 cell lines stably transfected with PTHRs. (FIG. 14A) Analysis of VHH binding to PTHR1, PTHR2 and variants by flow cytometry. HEK293 cell lines in suspension were incubated on ice with 100 nM VHH sortagged with Alexafluor647, pelleted by centrifugation, washed and analyzed. Data for PTHR1-GFP is found in FIGS. 17A to 17C. (FIG. 14B) Analysis of VHH binding with microscopy. […] Following staining, cells were washed and treated with fixative in preparation for image acquisition either immediately after staining (0 m) or following a 15-minute incubation in medium at room temperature (15 m).
(§2) Suspensions of cells in PBS were stained for 1 hour on ice in the presence of indicated concentrations of VHH probes functionalized with Alexafluor647. Cells were pelleted by centrifugation and washed with PBS prior to analysis by flow cytometry (BD Accuri C6). Gating was performed on forward scatter/side scatter profiles to analyze intact cells. Data was analyzed using FlowJo version 7.6. The median fluorescent intensity (MFI) of stained cells was used to generate VHH binding dose response curves (FIG. 20).
(§3) It was determined whether VHHs bound to their intended targets on live cells by flow cytometry (FIG. 14A).

[2] = biological target: T2, human PTHR2 (human, UniProt P49190 25-550); test: as above
T2 construct: whole, on cells; Stably expressed on HEK293 cells; also called hPTHR2
T2 sequence (P49190 25-550): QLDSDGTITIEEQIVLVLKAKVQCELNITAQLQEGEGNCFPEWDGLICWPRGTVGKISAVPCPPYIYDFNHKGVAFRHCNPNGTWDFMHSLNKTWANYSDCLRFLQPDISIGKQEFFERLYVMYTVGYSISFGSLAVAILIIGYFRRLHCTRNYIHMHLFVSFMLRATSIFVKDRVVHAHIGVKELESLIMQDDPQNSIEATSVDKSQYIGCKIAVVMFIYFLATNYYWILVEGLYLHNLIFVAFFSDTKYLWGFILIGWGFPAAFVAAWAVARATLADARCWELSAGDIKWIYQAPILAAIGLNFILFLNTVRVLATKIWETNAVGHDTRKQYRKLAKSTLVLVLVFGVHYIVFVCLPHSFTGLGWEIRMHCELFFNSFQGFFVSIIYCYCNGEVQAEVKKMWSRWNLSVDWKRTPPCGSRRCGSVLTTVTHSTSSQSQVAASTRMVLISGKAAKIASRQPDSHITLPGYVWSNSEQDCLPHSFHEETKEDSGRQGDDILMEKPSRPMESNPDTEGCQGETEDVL
Experimental: as §1, §2, §3

[3] = biological target: T3, Human PTHR1 WT (human, UniProt Q03431 27-593); test: flow cytometry, AlexaFluor647-VHH titrated on HEK293 cells expressing the receptor (MFI); plateau estimated
T3 construct: Stably expressed on HEK293 cells (GP2.3); also called hPTHR1; wild-type PTHR1
T3 sequence: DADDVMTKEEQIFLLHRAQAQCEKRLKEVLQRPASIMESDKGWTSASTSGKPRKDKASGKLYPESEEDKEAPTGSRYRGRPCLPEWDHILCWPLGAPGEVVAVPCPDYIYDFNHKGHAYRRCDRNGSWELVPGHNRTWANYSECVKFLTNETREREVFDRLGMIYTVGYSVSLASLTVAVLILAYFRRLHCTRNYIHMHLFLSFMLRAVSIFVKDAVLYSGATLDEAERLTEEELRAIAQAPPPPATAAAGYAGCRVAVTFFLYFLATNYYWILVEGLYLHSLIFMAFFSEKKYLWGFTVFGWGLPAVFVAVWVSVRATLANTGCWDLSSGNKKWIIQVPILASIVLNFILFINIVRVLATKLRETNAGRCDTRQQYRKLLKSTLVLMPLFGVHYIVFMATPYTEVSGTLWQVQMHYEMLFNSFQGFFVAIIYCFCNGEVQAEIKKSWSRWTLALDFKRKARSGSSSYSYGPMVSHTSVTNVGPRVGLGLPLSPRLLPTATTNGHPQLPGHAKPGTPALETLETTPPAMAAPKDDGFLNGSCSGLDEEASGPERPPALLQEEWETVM
Experimental: as §2
(§4) It was determined whether VHHs bound to their intended targets on live cells by flow cytometry (FIG. 14A). […] To estimate the affinity of the selected VHH for their targets flow cytometry was used to quantify binding.

[4] = biological target: T4, PTHR16E (human, UniProt Q03431 27-593); test: as above
T4 construct: Stably expressed on HEK293 cells; also called hPTHR16E
T4 chain: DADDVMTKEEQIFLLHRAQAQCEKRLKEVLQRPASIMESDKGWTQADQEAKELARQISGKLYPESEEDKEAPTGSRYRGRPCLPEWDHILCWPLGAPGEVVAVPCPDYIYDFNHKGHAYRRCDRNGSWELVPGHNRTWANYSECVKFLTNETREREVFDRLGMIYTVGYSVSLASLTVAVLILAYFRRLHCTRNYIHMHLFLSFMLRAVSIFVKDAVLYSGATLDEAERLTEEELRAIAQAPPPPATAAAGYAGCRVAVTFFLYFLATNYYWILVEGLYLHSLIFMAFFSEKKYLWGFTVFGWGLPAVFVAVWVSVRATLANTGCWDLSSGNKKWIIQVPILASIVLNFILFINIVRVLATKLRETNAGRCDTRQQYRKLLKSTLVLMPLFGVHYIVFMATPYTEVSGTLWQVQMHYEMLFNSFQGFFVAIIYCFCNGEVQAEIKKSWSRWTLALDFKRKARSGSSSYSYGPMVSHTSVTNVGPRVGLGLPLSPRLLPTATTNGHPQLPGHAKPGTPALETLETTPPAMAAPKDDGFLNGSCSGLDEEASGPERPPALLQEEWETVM
Experimental: as §2, §4

[5] = biological target: T5, PTHR1GFP (human, UniProt Q03431 95-593); test: as above
T5 construct: Human PTHR1 with the pH-sensitive GFP variant pHluorin2 inserted in the exon 2 portion; Stably expressed on HEK293 cells (GPG10); also called hPTHR1-GFP; hPTHR1GFP
Experimental: as §2, §4

[6] = biological target: T6, rat PTHR1 (rat, UniProt P25961 27-591); test: as above
T6 construct: whole, on cells; Stably expressed on HEK293 cells (GR35); also called rPTHR1
T6 sequence (looked up): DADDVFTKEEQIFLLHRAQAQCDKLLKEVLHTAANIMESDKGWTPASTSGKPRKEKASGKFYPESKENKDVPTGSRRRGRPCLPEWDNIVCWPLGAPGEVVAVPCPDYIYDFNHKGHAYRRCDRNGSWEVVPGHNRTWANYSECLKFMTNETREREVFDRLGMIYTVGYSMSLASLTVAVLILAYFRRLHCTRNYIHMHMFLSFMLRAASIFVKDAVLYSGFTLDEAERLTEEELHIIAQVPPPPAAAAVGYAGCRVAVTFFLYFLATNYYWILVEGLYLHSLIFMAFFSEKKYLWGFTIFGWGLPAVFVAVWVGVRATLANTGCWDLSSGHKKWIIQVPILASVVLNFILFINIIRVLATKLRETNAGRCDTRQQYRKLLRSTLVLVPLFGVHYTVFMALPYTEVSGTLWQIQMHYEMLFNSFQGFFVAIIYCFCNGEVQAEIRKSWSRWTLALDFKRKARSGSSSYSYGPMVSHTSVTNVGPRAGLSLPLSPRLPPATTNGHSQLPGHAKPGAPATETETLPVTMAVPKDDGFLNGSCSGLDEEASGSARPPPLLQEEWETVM
Experimental: as §2, §4

[7] = biological target: T1, PTHR1YFPΔECD; test: cell-based or functional assay
[8] = biological target: T1, PTHR1YFPΔECD; test: cell-based or functional assay; remark: listed apart in the source
[9] = biological target: T6, rat PTHR1; test: cell-based or functional assay
[10] = biological target: T4, PTHR16E; test: flow cytometry, AlexaFluor647-VHH titrated on HEK293 cells expressing the receptor (MFI)
Experimental: as §2, §4

B1: VHHPTHR (VHH)
VHH: EVQLVESGGGLVQAGGSLRLSCAASGNIFANNIMGWYRQPPGKEREFVAHVSHDGDSMYAVSVKGRFAISRKDATNLYLQMNSLKPEDTAIYFCRLLNIPTQGRMEGFWGQGTQVTVSS
modifications: C-terminus sortagged to a GGG-probe (AlexaFluor647, tetramethylrhodamine or biotin-azide)
notes: The label depends on the assay; also called VHH22A3; 22A3
B1 was tested, and the binding result [1] was “no binding (tested: 100 nM)”, the binding result [2] was “no binding (tested: 100 nM)” and the EC50 [3] was 100 to 200 nM. For the same binder, the EC50 [4] was 100 to 200 nM, the EC50 [5] was 100 to 200 nM and the EC50 [6] was 100 to 200 nM.

With SVSEIQLMHNLGKHLNSMERVEWLRKKLQDVHNF-NH2 [PTH(1-34)] the “Stimulation of receptor (cAMP), EC50” value [7] was 689 nM, the “cAMP induction EC50” value [8] was 689 nM and the “cAMP induction Max (normalized)” value [8] was 1 normalized. The “cAMP induction Max (normalized)” value [9] was 1 normalized.

B2: VHHGFP (VHH)
VHH: QVQLQESGGALVQPGGSLRLSCAASGFPVNRYSMRWYRQAPGKEREWVAGMSSAGDRSSYEDSVKGRFTISRDDARNTVYLQMNSLKPEDTAVYYCNVNVGFEYWGQGTQVTVSS
modifications: C-terminus sortagged to a GGG-probe (AlexaFluor647 or biotin-azide)
notes: also called VHH Enhancer; VHH-enhancer
B2: no binding (tested: 100 nM) [2].

B3: VHH6E (VHH)
VHH: QVQLQESGGGLVQPGGSLRLSCAASGFVFENSAMAWYRQAPGKERELIAVIGTTFIKLAESVKGRFTISRDNAKSTVYLQMNNLKPEDTAVYYCSKSGAYWGQGTQVTVSS
modifications: C-terminus sortagged to a GGG-probe (AlexaFluor647, tetramethylrhodamine or biotin-azide)
notes: It recognises a 14-mer from UBC6e; also called VHH05; VHH005
With B3 the binding result [2] was “no binding (tested: 100 nM)” and the EC50 [10] was < 10 nM.
